In patent US20090232783, “Method for Regulating Production of Hemoglobin Beta Chains” (published 2009):

B1: mutant oligo no. 3 (dsDNA)
DNA 1: AACTCCTAAGCCAGTGCCAGAACAGCCAACCCCCCGT
DNA 2: ACGGGGGGTTGGCTGTTCTGGCACTGGCTTAGGAGTT
B2: mutant oligo no. 2 (dsDNA)
DNA 1: AACTCCTAAGCCAGTGCCAGAAAAAACAAGGACAGGT
DNA 2: ACCTGTCCTTGTTTTTTCTGGCACTGGCTTAGGAGTT
B3: mutant oligo no. 1 (dsDNA)
DNA 1: AAGGGGGGAGCCAGTGCCAGAAGAGCCAAGGACAGGT
DNA 2: ACCTGTCCTTGGCTCTTCTGGCACTGGCTCCCCCCTT

Molecular target: Nuclear ferritin-H (K562 nuclear extract, crude or heat/proteinase K enriched) (Homo sapiens, UniProt P02794 P02794:2-183)
Test: competition; competes about as well as wt
Conditions: protein: extract
Method: Gel mobility shift assays. Gel retardation assays (i.e., gel shifts) were used to determine DNA binding of the extract proteins to the Rsa I (95 bp) fragment and synthetic oligonucleotides (Berg et al., (1989) Nucleic Acids Res 17, 8833-52; Fried & Crothers (1981) Nucleic Acids Res 9, 6505-25). Each reaction contained 0.5-2 ng of DNA, 1.0-5.0 ug of extract protein, 1.0-5.0 ug of poly dI:poly dC, 100 mM KCl, and binding buffer (Berg et al., (1989) Nucleic Acids Res 17, 8833-52). Unlabeled competitor oligonucleotides ranged from 15- to 2000-fold molar excess and were included in the reaction mixture with the probe before adding protein. Gels used for retardation assays were 4%, 5%, or 6% acrylamide and the running buffer was low ionic strength TAE (Berg et al., (1989) Nucleic Acids Res 17, 8833-52).
Definition of the binding site with competition gel shifts. To further localize the binding of ferritin, the 37 bp oligonucleotide was mutated in different places, replacing six nucleotides at a time with all A's, all C's, or all G's, with complementary nucleotide replacements in the opposing strand (FIG. 4A). A competition gel shift assay was done with the partially purified protein from heated K562 nuclear extract, in which each of the unlabeled mutant oligos as well as the native sequence was competed against the 32-P-labeled native sequence for binding.

Row | Binder | binding signal [fold]
1 | B1 | ~1
2 | B2 | ~1
3 | B3 | ~1
